From US20220412989A1, “COMPOSITIONS AND METHODS FOR DETECTING CELLS UNDERGOING FERROPTOSIS USING AN ANTIBODY” (THE TRUSTEES OF COLUMBIA UNIVERSITY IN THE CITY OF NEW YORK, priority 2020, published 2022)

Experiments:
HT-1080 cells = assay: Immunofluorescence staining of cells treated with cell death inducers, membrane intensity; assay type: cell-based, human
Protocol: HT-1080 (ATCC Cat #CRL-7951, RRID:CVCL_0317), A-673, SK-BR-3, SK-LMS-1 and Huh-7 cells were treated with 1 μM RSL3 for 4 h, 15 μM erastin for 8 h, 10 μM IKE for 8 h, 15 μM FINO2 for 8 h, 10 μM FIN56 for 8 h, 100 μM tBuOOH for 8 h, 1 μM staurosporine (STS) for 6 h, 2 μM camptothecin (CPT) for 24 h, 1 μM RSL3+5 μM Fer-1 for 4 h and 10 μM IKE+5 μM Fer-1 for 8 h on poly-lysine-coated cover slips (Sigma Aldrich P4832) in 24-well plate. Media were taken out and the cells were gently washed with PBS^++ (PBS with 1 mM CaCl2) and 0.5 mM MgCl2) twice. The cells were fixed and permeabilized by adding 200 μL/well of 4% paraformaldehyde (PFA) in PBS with 0.1% Triton X-100 (PBT), and incubated at room temperature for 18 min. The cells were then washed with PBT three times. Then the cells were blocked with 5% goat serum (ThermoFisher 50197Z) in PBT for 1 h at room temperature. The cells were incubated with purified mouse monoclonal antibodies (1:5 dilution), mouse mAb 3F3 FMA (1:500 dilution), Transferrin Receptor/CD71 Monoclonal Antibody, Clone: H68.4, Invitrogen (Thermo Fisher Scientific Cat #13-6800, RRID:AB_2533029, 1:250 dilution), Cd71 (D7G9X) XP® Rabbit mAb (Cell Signaling Technology Cat #13113, RRID:AB_2715594, 1:100 dilution), CD71 (3B8 2A1) (Santa Cruz Biotechnology Cat #sc-32272, RRID:AB_627167, 1:50 dilution), Tom20 (FL-145) (Santa Cruz Biotechnology Cat #sc-11415, RRID:AB_2207533, 1:250 dilution), PDI antibody [RL90]—ER Marker (Abcam Cat #ab2792, RRID:AB_303304, 1:100 dilution), Gm130 (D6B1) XP® Rabbit mAb (Cell Signaling Technology Cat #12480, RRID:AB_2797933, 1:3200 dilution), Anti-Malondialdehyde antibody (Abcam Cat #ab6463, RRID:AB_305484, 1:400 dilution), Anti-4 Hydroxynonenal antibody (Abcam Cat #ab46544, RRID:AB_722493, 1:50 dilution), ACSL4 Antibody (F-4) (Santa Cruz Biotechnology Cat #sc-365230, RRID:AB_10843105, 1:50 dilution), mouse mAb 1F83 (1:100 dilution), which specifically recognizes the malondialdehyde (MDA)-lysine adduct 4-methyl-1,4-dihydropyridine-3,5-dicarbaldehyde (MDHDC) (Yamada et al., 2001), in PBT with 1% BSA and 5% goat serum overnight at 4° C. The cells were washed with PBT for 5 min three times. The cells were incubated with Goat anti-Mouse IgG (H+L) Highly Cross-Adsorbed Secondary Antibody, Alexa Fluor 594 (Thermo Fisher Scientific Cat #A-11032, RRID:AB_2534091, 1:200 dilution) or Goat anti-Rabbit IgG (H+L) Highly Cross-Adsorbed Secondary Antibody, Alexa Fluor 488 (Thermo Fisher Scientific Cat #A-11034, RRID:AB_2576217, 1:200 dilution) at room temperature for 1 h. The cells were washed with PBT for 5 min three times. ProLong Diamond antifade mountant with DAPI (ThermoFisher P36962) was added to stain the nucleus. All images were captured on a Zeiss LSM 800 confocal microscope at Plan-Apochromat 63x/1.40 Oil DIC objective with constant laser intensity for all samples. When applicable, line-scan analysis was performed on representative confocal microscopy images using Zeiss LSM software to qualitatively visualize fluorescence overlap.
The quantification of the intensity of antibodies was analyzed using CellProfiler 3.1.8 (Carpenter et al., 2006) (CellProfiler Image Analysis Software, RRID:SCR_007358). Nuclei were firstly identified as primary objects using global minimum cross entropy strategy. […] Then mean intensities and size areas of nuclei, cytoplasm and plasma membranes were then measured and reported. […]

[1] = target: T1, TfR1 in mouse liver tissue (Mus musculus, UniProt Q62351); assay: Staining of normal mouse liver frozen tissue; details: frozen tissue samples
T1 construct: from tissue; host or cells: normal mouse liver, frozen sections
T1 sequence (Q62351 whole entry): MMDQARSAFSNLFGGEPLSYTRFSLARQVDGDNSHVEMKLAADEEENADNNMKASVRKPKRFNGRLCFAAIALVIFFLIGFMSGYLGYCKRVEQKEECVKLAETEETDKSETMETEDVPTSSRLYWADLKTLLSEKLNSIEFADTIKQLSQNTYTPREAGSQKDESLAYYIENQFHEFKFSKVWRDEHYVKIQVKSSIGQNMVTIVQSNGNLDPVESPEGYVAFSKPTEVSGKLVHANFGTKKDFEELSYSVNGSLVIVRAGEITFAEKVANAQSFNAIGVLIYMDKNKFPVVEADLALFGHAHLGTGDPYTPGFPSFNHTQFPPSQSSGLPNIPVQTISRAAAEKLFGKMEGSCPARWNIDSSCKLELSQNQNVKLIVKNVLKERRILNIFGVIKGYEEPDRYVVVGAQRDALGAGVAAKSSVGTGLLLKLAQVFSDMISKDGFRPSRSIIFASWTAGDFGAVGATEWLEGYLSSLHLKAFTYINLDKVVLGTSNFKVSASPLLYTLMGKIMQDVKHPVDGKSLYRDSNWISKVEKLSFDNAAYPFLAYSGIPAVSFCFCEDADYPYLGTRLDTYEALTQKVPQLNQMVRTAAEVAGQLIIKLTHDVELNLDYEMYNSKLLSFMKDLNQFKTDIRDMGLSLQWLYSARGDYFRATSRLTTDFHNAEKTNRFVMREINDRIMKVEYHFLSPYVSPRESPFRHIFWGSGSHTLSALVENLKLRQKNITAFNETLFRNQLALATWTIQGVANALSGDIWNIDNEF
Protocol: FIGS. 12A-12B show 3F3 FMA staining in human Huntington's disease brains and mouse tissues. In FIG. 12A, human HD and control brain tissues were fixed in 4% PFA for 24 h, perfused in 30% sucrose for 24 h, and stained with DAPI (nuclei, blue) and 3F3 FMA (red). The expression level of TfR1 is low. There was no difference between HD and control groups. In FIG. 12B, mouse liver tissues and mouse GBM tissues were fixed and stained with DAPI (nuclei, blue) and 3F3 FMA (red). 3F3 FMA was able to recognize mouse TfR1.

B1: 3F3-FMA: murine monoclonal IgG1 raised against ferroptotic membrane fractions; antigen is human transferrin receptor protein 1 (TfR1) (antibody, V domains shown)
VH: EVLLQQSGTELVRPGALVKLSCKASGFNIQDLYIHWVKQRPEQGLEWIGWIDPETDNTIYDPKFQGKASITADTSSNTAYLQLSSLTSEDTAMYYCSTGLLQWYFDVWGAGTAVTVSS
VL: DIVMTQSPSSLAMSIGQKVTMRCKSSQSLLNSYNQKNCLAWYQQKPGQSPKLLLYFVSTRESGVPDRFIGSGSGTDFTLTISSVQAEDLADYFCQQHYSTPLTFGAGTKLELK
Question: Which “staining / membrane intensity in RSL3-induced ferroptosis” value (HT-1080 cells; 1 μM RSL3, 4 h vs DMSO) does the source give for B1 here?
Answer: stained cell boundaries and the inside puncta became brighter

Question: What about the “cell surface / membrane staining in STS-induced apoptosis” value (HT-1080 cells; 1 μM staurosporine, 6 h) of the same molecule?
Answer: wasn't detected

Question: What about the “cell surface / membrane intensity in camptothecin-induced apoptosis” value (HT-1080 cells; 2 μM camptothecin, 24 h) of the same molecule?
Answer: no significant increase

Question: And the “membrane intensities in H2O2-treated cells” value (HT-1080 cells; 1 mM H2O2, 4 h)?
Answer: didn't observe increased membrane intensities

Question: And the “staining pattern with other ferroptosis inducers” value (HT-1080 cells; IKE, erastin, FIN56, FINO2 and tBuOOH, 8 h)?
Answer: the same changes of 3F3-FMA pattern were observed

Question: And the “staining signal in normal mouse liver” value [1]?
Answer: robust signal
